Our source for the stoichiometry N values is paper PMC10213058.

The target of this assay is mouse pendrin (SLC26A4), full length (mouse). Put plainly: cryo-EM structure; single-particle cryo-EM of purified pendrin in 0.02% GDN, about 1.7 mg/mL, pH 8.0-8.3; samples in 150 mM NaCl (pendrin-Cl), NaHCO3 (pendrin-HCO3), Cl/HCO3, Cl/I and HCO3/I; symmetric and asymmetric homodimers.

The stoichiometry N is a count of units in the complex or per binding partner. Turning to “mouse pendrin (SLC26A4), full length (natural protein)”, the stoichiometry N stood at 2.
